The assay has as its target Fragile X messenger ribonucleoprotein (FMRP) (human (endogenous in iPSC-derived NPCs)) (UniProt Q06787). In words: co-IP.

On to “histone H3 di-methylated at lysine 79 (H3K79me2) (from UniProt P68431 1-136) (natural protein)”, for which the percent of input co-immunoprecipitated stood at 20%.

The values above are taken from doi:10.1101/2025.08.31.673358.
